Measurements taken from the nanobody polyreactivity screen of Harvey et al. (2022).

Assay: yeast display, Sf9 membrane polyspecificity reagent, FACS + sequencing; frameworks hold sequencing errors
Summary of the method: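 Synthetic nanobody libraries on Saccharomyces cerevisiae BJ5465 were galactose-induced for 36–48 hours, stained 1 hour at 4 °C with 10% biotinylated, detergent-solubilized Sf9 membrane reagent and enriched on streptavidin microbeads. FACS then separated cells into low and high (top ~1%) gates by anti-HA (expression) and streptavidin (reagent binding) fluorescence. Genes were colony-PCR amplified, MiSeq 2 × 250 sequenced and CDR-length filtered. A clone's polyreactivity label is that of its gate of origin.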

Sequence	polyreactivity (PSR sort gate)
QVQLVESGGGLVQAGGSLRLSCAASGLIFSYNAMGWYRQAPGKERELVATIRRVGSTNYADSVKGRFTISRDNAKNTVYLQMNSLKPEDTAVYYCAARSLRYGRGMYYWGQGTQVTVSS	high polyreactivity
QVQLVESGGGLVQAGGSLRLSCAASGLIFSYYAMGWYRQAPGKERELVAAIDWISGSTYYADSVKGRFTISRDNAKNTVYLQMNSLKPEDTAVYYCAAYGSFWYAGFGYWGQGTQVTVSS	low polyreactivity
QVQLVESGGGLVQAGGSLRLSCAASGLIFSYYAMGWYRQAPGKERELVAAITGSGGTTYYADSVMGRFTISRDNANNTVYLQMNSLKPEDTAVYYCATPPPEVWQRWYREYDYWGQGTQVTVSS	low polyreactivity
QVQLVESGGGLVQAGGSLRLSCAASGLIFTNNAMGWYRQAPGKERELVAGINSGGRTNYADSVKGRFTISRDNAKNTVYLQKNSLKPEDTAVYYCAARWWVKSRPNRYNYWGQGTQVTVSS	high polyreactivity
QVQLVESGGGLVQAGGSLRLSCAASGLIFTPYAMGWYRQAPGKERELVAAISVSGGRTYYADSVKGRFTISRDNAKNTVYLQMNSLKPEDTAVYYCAASDRYGGRDYWGQGTQVTVSS	high polyreactivity
QVQLVESGGGLVQAGGSLRLSCAASGLIFTRNFMGWYRQAPGKERELVAAITSGGSTYYADSVKRRFTISRDNAKNTVYLQMNSLNPEDTADYYCAAGCDYLLSTVRFDYWGQGTQVTVSS	high polyreactivity
QVQLVESGGGLVQAGGSLRLSCAASGLIFTTNAMGSYRQAPGKEREFVAAISPSGGSTYYADSVKGRFTISRDNAKNTVYLQMNRLKPEDTAVYYCAARYSPVWHKYYYWGQGTQVTVSS	high polyreactivity
QVQLVESGGGLVQAGGSLRLSCAASGLIFTWYAMGWYRQAPGKERELVADISWSDDSTNYADSVKGRFTISRDNAKNTVYLQMNSLKPEDTAVYYCATQLDYGGRVGDADDYWGQGTQVTVSS	low polyreactivity
QVQLVESGGGLVQAGGSLRLSCAASGLIFTYYAMGWYRQAPGKERELVAAINYSGGSTYYADSVKGRFTISRDNAKNTVYLQMNSLKPEDTAVYYCAARRVTQTEGPMGYWGQGTQVTVSS	low polyreactivity
QVQLVESGGGLVQAGGSLRLSCAASGLIFTYYAMGWYRQAPGKERELVAAITSGGSTNYADSVKGRFTISRDNAKYTVYLQMNSLKPEDTAVYYCAADYDTGSERYEYWGQGSQVTVSS	low polyreactivity
QVQLVESGGGLVQAGGSLRLSCAASGLIFVAYAMGWYRQAPGKERELVAAISRSGGSTYYADSVKGRFTISRDNAKNTVYLQMNRLKPEDTAVYFCAKYYGARHVDDDYWGQGTQVTVSS	high polyreactivity
QVQLVESGGGLVQAGGSLRLSCAASGLIFVDNAMGWYRQAPGKERELVAAIDSGGSTNYADSVKGRFTISRDNAKNTVYLQMNSLKPEDTAVYYCAADWIYAPWYYQESVEYYYWGQGTQVTVSS	low polyreactivity
QVQLVESGGGLVQAGGSLRLSCAASGLIFVFNTLGWYRQAPGKEMELVAVITSGGSTNYADSVKGRFTISSDNEKNTVYLQMISLKPEDTAVYYCNVDRQVITGRYIGDYWGEGTQVTVSS	low polyreactivity
QVQLVESGGGLVQAGGSLRLSCAASGLIFVGYAMGWYRQAPGKERELVAAITSGGSTKYADSVKGRFTISRDNAKNTVYLQMNSLKAEDTAVYYCAASGWRNWWSARNYYWGQGTQVTVSS	low polyreactivity
QVQLVESGGGLVQAGGSLRLSCAASGLIFVGYAMGWYRQAPGKERELVAAITSGGSTKYADSVKGRFTISRDNAKNTVYLQMNSLKPEDTAVYYCAASGWRNWWSARNYYWGQGTLVTVSS	low polyreactivity
QVQLVESGGGLVQAGGSLRLSCAASGLIFVGYAMGWYRQSPGKERELVAAITSGGSTKYADSVKGRVTISRDNAKNTDYLQMNSLKPEDTAVYYCADSGCRNWWSARNYYWGQGTQVTVSS	low polyreactivity
QVQLVESGGGLVQAGGSLRLSCAASGLIFVHYAMGWYRQAPGKEREFVAAITWSGGSKYYADSVKGRFTISRDNAKNTVYLQMNSLKPEDTAVYYCAVDGFRPGTASFGYWGQGTQVTVSS	low polyreactivity
QVQLVESGGGLVQAGGSLRLSCAASGLIFVQYVMGWYRQAPGKERELVAAITEDGNTYYADSVKGRFTISRDNAKNTVYLQMNSLKPEDTAVYYCNAVLRSYDFWTGYGYWGQGTQVTVSS	low polyreactivity
QVQLVESGGGLVQAGGSLRLSCAASGLIFVTNAMGGYRQAPGKERELVAAITRSGGSTYYADSVKGRFTISRDNAKNTVYLQMNSLKQEDTAVYYCATGFHYAYGYWGQGTQVTVSS	low polyreactivity
QVQLVESGGGLVQAGGSLRLSCAASGLIFVWYAMGWYRQAPGKEREVVAAITSRGGSTYYADSVKGRFTISRDNAKNTVYLQMNSLKPEDTAVYYCAKYVRYDLGDYWGQGTQVTVSS	low polyreactivity
QVQLVESGGGLVQAGGSLRLSCAASGLIFVYNSMGWYRQAPGKERELVAGITSGGSTNYADSVKGRFTISRDNAKNTVYLQMNSLKPEDTAVYYCAAGYYDLYLWWGYDYWGQGTQVTVSS	high polyreactivity
QVQLVESGGGLVQAGGSLRLSCAASGLIFWKYAMGWYRQAPGKEREFVAAITYGGGGTYYADSVKGRFTISRDNAKNTVYFQMNSLKPEDTAVYYWAKRRYYYKGRVSYRQYGYWGQGTQVTVSS	high polyreactivity

Sequence	polyreactivity (PSR sort gate)
QVQLVESGGGLVQAGGSLRLSCAASGLIFWYYAMGWYRQAPGKERELVAAINKIGGSTYYADSVKGRFTISRDNAKNTVYLQMNSLKPEDTAVYYCAADAPYYPVRRYYYWGQGTQVTVSS	low polyreactivity
QVQLVESGGGLVQAGGSLRLSCAASGLIFYDNMGWYRQAPGKERELVAAISSSGGSTSYADSVKGRFTISRDNAKNTVYLQMNSLKPEDTAVYYCAADQYYYWYTHQSIGYDYWGQGTQVTVSS	low polyreactivity
QVQLVESGGGLVQAGGSLRLSCAASGLIFYGNAMGWYRQAPGKERELVAAISRRGGRTYYADSVKGRFTISRDKAKNTVYLQMKSLKPEDTAVYYCAADVIYSGDYWGQGTQVTVSS	high polyreactivity
QVQLVESGGGLVQAGGSLRLSCAASGLIFYINAMGWYRQAPGKERELVAVISGGGSTNYADSVKGRFTISRDNAKNTVYLQMNSLKPEDTAVYYCNARRSHSYRHYDYWGQGTQVTVSS	low polyreactivity
QVQLVESGGGLVQAGGSLRLSCAASGLIFYKYAMGWYRQAPGKEREFVAAISGSGGSTYYADSVKGRFTISRDNAKNTVYLQMNSLKPEDTAVYYCAVRQRYGPARYDYWGQGTQVTVSS	high polyreactivity
QVQLVESGGGLVQAGGSLRLSCAASGLIFYKYAMGWYRQAPGKERELVAAITSGGSTNYADSVKGRFTISRDNAKNTVYLQMNSLKPEDTAVYYCNADYHPYLVVRWWYPPVDYWGQGNQVTVSS	low polyreactivity
QVQLVESGGGLVQAGGSLRLSCAASGLIFYRNALGWYRQEPGKERELVATISRRGGRTYYADSVKGRFTISRDNAKNTVYLQMNSLNPEDTAVYYCNADDYSSRGGYDSWGQGTQVTVSS	high polyreactivity
QVQLVESGGGLVQAGGSLRLSCAASGLIFYRNAMGWYRQAPGKERELVAAISKNGGNTYYADSVKGRFTISRDNAKNTVFLQMNSLKTEDTAVYYCAARELYGPFGYWGQGTQVTVSS	high polyreactivity
QVQLVESGGGLVQAGGSLRLSCAASGLIFYSNAMGWYRQAPGKERELVATISGSTGTTNYADSVKGRFTISRDNAKNTVYLQMNSLKPEDTAVYYCAAEWRRYEYADSWEYDYWGQGTQVTVSS	low polyreactivity
QVQLVESGGGLVQAGGSLRLSCAASGLIFYSYAMGWYRQAHAKERELVAAITGGGSTNYADSVKGRFTISRDNAKNTVYLQMNSLKPEDTAVYYCAAQAYVEGVYRYDYWGQGTQVTVSS	low polyreactivity
QVQLVESGGGLVQAGGSLRLSCAASGLIFYTYAMGWYRQAPGKERALVADINRSDGSTYYADSVKGRFTISRDNAKNTVYLQMNILKPEDTAVYYCAVVGPYYTRFGGRYYYWGQGTQVTVSS	low polyreactivity
QVQLVESGGGLVQAGGSLRLSCAASGLIFYTYAMGWYRQAPGKERELVAAISYDGTRTYYADSVKGRFTISRDNAKNTVYLQMNSLKPEDTAVYYCTAAYRRGDDYWGQGTQVTVSS	high polyreactivity
QVQLVESGGGLVQAGGSLRLSCAASGLIFYYYAMGWYRQAPGKEREFVAAINSSGDSTYYADSVKGRFTISRDNAKNTVYLQMNSLKPEDTAVYYCNVDWYLHEYDYWGQGTQVTVSS	low polyreactivity
QVQLVESGGGLVQAGGSLRLSCAASGLIFYYYAMGWYRQAPGKEREFVAAISRSGGITRYADSVKGRFTISRDNAKNTVYLQMNSLKPEDTAVYYCAADAYPLTYDDYYWGQGTKVTVSS	high polyreactivity
QVQLVESGGGLVQAGGSLRLSCAASGLIFYYYAMGWYRQAPGKERELVADIDRGGDTYYADSVKGRFTISRDNAKNTVYLQMNSLKPEDTAVYYGAAVDFYGYVPEFGYWGQGTQVTVSS	low polyreactivity
QVQLVESGGGLVQAGGSLRLSCAASGLIFYYYTMGWYRQAPGKERELVAAITNGGRTNYADSVKGRFTISRDNAKNTVYLQMNSLKPEDTAVYYCNAVVHKYQRGPYYIKYDYWGQGTQVTVSS	high polyreactivity
QVQLVESGGGLVQAGGSLRLSCAASGLIFYYYVMGWYRQAPGKERELVARISTSGGSTYYADSVKGRFTISRDNAKNTVYLQMNSLKPEDTAVYYCAARGYRQYGWDGYWGQGTQVTVSS	low polyreactivity
QVQLVESGGGLVQAGGSLRLSCAASGLIIPFYAMGWYRQAPGKERELVAAISWSAGSTYYADSVKGRFTISRDNAKNTVYLQMNSLKPEDTADYYCATERNPADFYWGQGTQVTVSS	low polyreactivity
QVQLVESGGGLVQAGGSLRLSCAASGLIIPFYAMGWYRQAPGKERELVAAISWSAGSTYYADSVKGRFTISRDNAKNTVYLQMNSLKPEDTAVYYCAATAYYYYDYDYWGQGTQVTVSS	low polyreactivity
QVQLVESGGGLVQAGGSLRLSCAASGLIIRPYAMGWYRQAPGKERELVAAITSGGSTDYADSVKGRFTISRVNAKNSVYLQMYSRKPEDTAVYYCNGDIYPHDGYPWQGDYDYWGQGTQVTVSS	low polyreactivity
QVQLVESGGGLVQAGGSLRLSCAASGLILGINAMGWYRQAPGKERELVAAISSSGGRTSYADSVKGRFTISRDNAKNTVYLQMNILKPEDTAVYYCAKRRTTYSHYDYWGQGTQVSVSS	low polyreactivity
